# Key:
# [1] = target: T1, recombinant human BTN3A1 (human, UniProt O00481 30-254); experiment: SPR
# T1 construct: Soluble form of the antigen used in SPR; also called rhBTN3A1; recombinant BTN3A1 protein
# [2] = target: T2, recombinant human PD-L1 (human, UniProt Q9NZQ7 19-239, limits assumed); experiment: SPR
# T2 construct: Soluble antigen in SPR; also called rhPD-L1
# [3] = target: T3, PD-L1 at the surface of transduced cells (UniProt Q9NZQ7 19-290, limits assumed); experiment: flow cytometry, CHO-PD-L1 cells
# T3 construct: whole, on cells; CHO-PD-L1 cells in flow cytometry, Raji-PD-L1 cells in the reporter assay; also called CHO-PD-L1; Raji-PD-L1
# [4] = target: T4, BTN3A1 at the surface of HEK-BTN3A1 cells (human, UniProt O00481 30-513); experiment: flow cytometry, HEK-BTN3A1 cells
# T4 construct: HEK 293T BTN2A/BTN3A KO cells transduced with a BTN3A1 expressing vector
# [5] = target: T3, PD-L1 at the surface of transduced cells; experiment: cell-based or functional assay
# T4 sequence (O00481 30-513 limits assumed): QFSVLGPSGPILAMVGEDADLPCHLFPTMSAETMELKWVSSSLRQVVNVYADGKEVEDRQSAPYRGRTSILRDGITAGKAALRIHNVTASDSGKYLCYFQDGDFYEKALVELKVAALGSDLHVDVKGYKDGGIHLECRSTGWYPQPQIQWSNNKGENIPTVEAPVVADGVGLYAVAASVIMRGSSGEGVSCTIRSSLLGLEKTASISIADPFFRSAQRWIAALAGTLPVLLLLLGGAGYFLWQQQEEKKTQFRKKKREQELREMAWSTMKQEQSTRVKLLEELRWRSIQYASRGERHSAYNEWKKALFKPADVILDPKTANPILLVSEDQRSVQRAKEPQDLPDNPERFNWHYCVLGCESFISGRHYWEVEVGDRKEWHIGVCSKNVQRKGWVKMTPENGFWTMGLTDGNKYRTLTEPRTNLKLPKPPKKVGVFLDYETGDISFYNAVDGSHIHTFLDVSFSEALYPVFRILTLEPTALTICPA
# T1 sequence (O00481 30-254 limits assumed): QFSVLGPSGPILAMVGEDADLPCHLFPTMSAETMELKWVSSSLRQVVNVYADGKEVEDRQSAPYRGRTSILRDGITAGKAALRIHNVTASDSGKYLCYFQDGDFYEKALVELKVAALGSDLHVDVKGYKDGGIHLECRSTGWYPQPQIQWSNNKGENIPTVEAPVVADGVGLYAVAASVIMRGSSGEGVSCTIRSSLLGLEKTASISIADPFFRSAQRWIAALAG
# T3 sequence (Q9NZQ7 19-290 limits assumed): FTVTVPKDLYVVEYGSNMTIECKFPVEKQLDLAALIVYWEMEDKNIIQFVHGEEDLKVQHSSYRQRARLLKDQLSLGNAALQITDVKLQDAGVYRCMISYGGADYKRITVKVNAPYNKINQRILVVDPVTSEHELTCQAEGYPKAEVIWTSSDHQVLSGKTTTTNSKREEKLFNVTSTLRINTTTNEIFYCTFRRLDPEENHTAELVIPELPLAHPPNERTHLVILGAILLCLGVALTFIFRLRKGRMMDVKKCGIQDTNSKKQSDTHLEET
# T2 sequence (Q9NZQ7 19-239 limits assumed): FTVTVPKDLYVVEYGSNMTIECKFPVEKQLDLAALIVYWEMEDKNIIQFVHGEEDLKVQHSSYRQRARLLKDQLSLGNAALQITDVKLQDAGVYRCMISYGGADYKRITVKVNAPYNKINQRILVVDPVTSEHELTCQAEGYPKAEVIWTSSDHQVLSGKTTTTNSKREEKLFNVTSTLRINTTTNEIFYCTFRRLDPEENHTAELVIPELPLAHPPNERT
Binder,Kd [1],Kd [2],MFI at 10 nM [3],MFI at 100 nM [3],MFI at 10 nM [4],MFI at 100 nM [4],Jurkat-PD-1 activation at 10 nM [5],Jurkat-PD-1 activation at 100 nM [5]
"bsAb036 (bispecific antibody, one Fab arm anti-PD-L1, two scFv anti-BTN3A; not shown: IgG1 CH1-hinge-CH2-CH3; CH2-CH3 (Fc)) heavy (part 1 of 2): EVQLVESGGGLVQPGGSLRLSCAASGFTFSRYWMSWVRQAPGKGLEWVANIKQDGSEKYYVDSVKGRFTISRDNAKNSLYLQMNSLRAEDTAVYYCAREGGWFGELAFDYWGQGTLVTVSS heavy (part 2 of 2): GGGGSGGGGSGGGGSGGGGSQVQLVQSGAEVKKPGASVKLSCKASGYIFTRYYMYWVKQRPGQGLEWIGEINPNNGGTKFNEKFKNRATLTVDKSISTAYMELSRLRSDDTAVYYCSREDDYDGTPFAMDYWGQGTLVTVSSGGGGSGGGGSGGGGSGGGGSDIQMTQSPSSLSASVGDRVTITCHASQNINVWLSWYQQKPGKAPKLLIYKASNLHTGVPSRFTGSGSGTDFTFTISSLQPEDIATYYCQQGQTYPYTFGQGTKLEIK heavy: GGGGSGGGGSGGGGSGGGGSQVQLVQSGAEVKKPGASVKLSCKASGYIFTRYYMYWVKQRPGQGLEWIGEINPNNGGTKFNEKFKNRATLTVDKSISTAYMELSRLRSDDTAVYYCSREDDYDGTPFAMDYWGQGTLVTVSSGGGGSGGGGSGGGGSGGGGSDIQMTQSPSSLSASVGDRVTITCHASQNINVWLSWYQQKPGKAPKLLIYKASNLHTGVPSRFTGSGSGTDFTFTISSLQPEDIATYYCQQGQTYPYTFGQGTKLEIK light: EIVLTQSPGTLSLSPGERATLSCRASQRVSSSYLAWYQQKPGQAPRLLIYDASSRATGIPDRFSGSGSGTDFTLTISRLEPEDFAVYYCQQYGSLPWTFGQGTKVEIKRTVAAPSVFIFPPSDEQLKSGTASVVCLLNNFYPREAKVQWKVDNALQSGNSQESVTEQDSKDSTYSLSSTLTLSKADYEKHKVYACEVTHQGLSSPVTKSFNRGEC",0.457 nM,0.055 nM,1.03e+06 MFI,1.24e+06 MFI,682000 MFI,1.22e+06 MFI,,
"bsAb054 (bispecific antibody, IgG anti-PD-L1, one scFv anti-BTN3A; not shown: IgG1 CH1-hinge-CH2-CH3) heavy (part 1 of 2): EVQLVESGGGLVQPGGSLRLSCAASGFTFSRYWMSWVRQAPGKGLEWVANIKQDGSEKYYVDSVKGRFTISRDNAKNSLYLQMNSLRAEDTAVYYCAREGGWFGELAFDYWGQGTLVTVSS heavy (part 2 of 2): GGGGSGGGGSGGGGSGGGGSQVQLVQSGAEVKKPGASVKLSCKASGYIFTRYYMYWVKQRPGQGLEWIGEINPNNGGTKFNEKFKNRATLTVDKSISTAYMELSRLRSDDTAVYYCSREDDYDGTPFAMDYWGQGTLVTVSSGGGGSGGGGSGGGGSGGGGSDIQMTQSPSSLSASVGDRVTITCHASQNINVWLSWYQQKPGKAPKLLIYKASNLHTGVPSRFTGSGSGTDFTFTISSLQPEDIATYYCQQGQTYPYTFGQGTKLEIK heavy: EVQLVESGGGLVQPGGSLRLSCAASGFTFSRYWMSWVRQAPGKGLEWVANIKQDGSEKYYVDSVKGRFTISRDNAKNSLYLQMNSLRAEDTAVYYCAREGGWFGELAFDYWGQGTLVTVSS light: EIVLTQSPGTLSLSPGERATLSCRASQRVSSSYLAWYQQKPGQAPRLLIYDASSRATGIPDRFSGSGSGTDFTLTISRLEPEDFAVYYCQQYGSLPWTFGQGTKVEIKRTVAAPSVFIFPPSDEQLKSGTASVVCLLNNFYPREAKVQWKVDNALQSGNSQESVTEQDSKDSTYSLSSTLTLSKADYEKHKVYACEVTHQGLSSPVTKSFNRGEC",0.126 nM,0.033 nM,664000 MFI,690000 MFI,424000 MFI,1.06e+06 MFI,,
"bsAb069 (bispecific antibody, not shown: IgG1 CH1-hinge-CH2-CH3; CH2-CH3 (Fc)) heavy 1: EVQLVESGGGLVQPGGSLRLSCAASGFTFSRYWMSWVRQAPGKGLEWVANIKQDGSEKYYVDSVKGRFTISRDNAKNSLYLQMNSLRAEDTAVYYCAREGGWFGELAFDYWGQGTLVTVSS heavy 2: DIQMTQSPSSLSASVGDRVTITCHASQNINVWLSWYQQKPGKAPKLLIYKASNLHTGVPSRFTGSGSGTDFTFTISSLQPEDIATYYCQQGQTYPYTFGQGTKLEIKGGGGSGGGGSGGGGSGGGGSQVQLVQSGAEVKKPGASVKLSCKASGYIFTRYYMYWVKQRPGQGLEWIGEINPNNGGTKFNEKFKNRATLTVDKSISTAYMELSRLRSDDTAVYYCSREDDYDGTPFAMDYWGQGTLVTVSSGGGGSGGGGSGGGGSGGGGS light: EIVLTQSPGTLSLSPGERATLSCRASQRVSSSYLAWYQQKPGQAPRLLIYDASSRATGIPDRFSGSGSGTDFTLTISRLEPEDFAVYYCQQYGSLPWTFGQGTKVEIKRTVAAPSVFIFPPSDEQLKSGTASVVCLLNNFYPREAKVQWKVDNALQSGNSQESVTEQDSKDSTYSLSSTLTLSKADYEKHKVYACEVTHQGLSSPVTKSFNRGECGGGGSGGGGSGGGGSGGGGSQVQLVQSGAEVKKPGASVKLSCKASGYIFTRYYMYWVKQRPGQGLEWIGEINPNNGGTKFNEKFKNRATLTVDKSISTAYMELSRLRSDDTAVYYCSREDDYDGTPFAMDYWGQGTLVTVSSGGGGSGGGGSGGGGSGGGGSDIQMTQSPSSLSASVGDRVTITCHASQNINVWLSWYQQKPGKAPKLLIYKASNLHTGVPSRFTGSGSGTDFTFTISSLQPEDIATYYCQQGQTYPYTFGQGTKLEIK",0.1 nM,0.076 nM,1.02e+06 MFI,1.16e+06 MFI,635000 MFI,1.18e+06 MFI,,
"bsAb011 (bispecific antibody, IgG anti-BTN3A, scFv anti-PD-L1) heavy: QVQLVQSGAEVKKPGASVKLSCKASGYIFTRYYMYWVKQRPGQGLEWIGEINPNNGGTKFNEKFKNRATLTVDKSISTAYMELSRLRSDDTAVYYCSREDDYDGTPFAMDYWGQGTLVTVSSASTKGPSVFPLAPSSKSTSGGTAALGCLVKDYFPEPVTVSWNSGALTSGVHTFPAVLQSSGLYSLSSVVTVPSSSLGTQTYICNVNHKPSNTKVDKRVEPKSCDKTHTCPPCPAPEFEGGPSVFLFPPKPKDTLMISRTPEVTCVVVDVSHEDPEVKFNWYVDGVEVHNAKTKPREEQYNSTYRVVSVLTVLHQDWLNGKEYKCKVSNKALPASIEKTISKAKGQPREPQVYTLPPSREEMTKNQVSLTCLVKGFYPSDIAVEWESNGQPENNYKTTPPVLDSDGSFFLYSKLTVDKSRWQQGNVFSCSVMHEALHNHYTQKSLSLSPG light: not shown",0.504 nM,0.043 nM,682000 MFI,722000 MFI,512000 MFI,1.14e+06 MFI,6.4 fold-change to medium,2.3 fold-change to medium

# Other lines, results leading:
Kd [1],Kd [2],MFI at 10 nM [3],MFI at 100 nM [3],MFI at 10 nM [4],MFI at 100 nM [4],Jurkat-PD-1 activation at 10 nM [5],Jurkat-PD-1 activation at 100 nM [5],Binder
0.101 nM,0.053 nM,1.14e+06 MFI,1.3e+06 MFI,1.1e+06 MFI,1.67e+06 MFI,,,"bsAb041 (bispecific antibody, one Fab arm anti-PD-L1, two scFv anti-BTN3A; not shown: IgG1 CH1-hinge-CH2-CH3; CH2-CH3 (Fc)) heavy (part 1 of 2): EVQLVESGGGLVQPGGSLRLSCAASGFTFSRYWMSWVRQAPGKGLEWVANIKQDGSEKYYVDSVKGRFTISRDNAKNSLYLQMNSLRAEDTAVYYCAREGGWFGELAFDYWGQGTLVTVSS heavy (part 2 of 2): GGGGSGGGGSGGGGSGGGGSDIQMTQSPSSLSASVGDRVTITCHASQNINVWLSWYQQKPGKAPKLLIYKASNLHTGVPSRFTGSGSGTDFTFTISSLQPEDIATYYCQQGQTYPYTFGQGTKLEIKGGGGSGGGGSGGGGSGGGGSQVQLVQSGAEVKKPGASVKLSCKASGYIFTRYYMYWVKQRPGQGLEWIGEINPNNGGTKFNEKFKNRATLTVDKSISTAYMELSRLRSDDTAVYYCSREDDYDGTPFAMDYWGQGTLVTVSS heavy: GGGGSGGGGSGGGGSGGGGSDIQMTQSPSSLSASVGDRVTITCHASQNINVWLSWYQQKPGKAPKLLIYKASNLHTGVPSRFTGSGSGTDFTFTISSLQPEDIATYYCQQGQTYPYTFGQGTKLEIKGGGGSGGGGSGGGGSGGGGSQVQLVQSGAEVKKPGASVKLSCKASGYIFTRYYMYWVKQRPGQGLEWIGEINPNNGGTKFNEKFKNRATLTVDKSISTAYMELSRLRSDDTAVYYCSREDDYDGTPFAMDYWGQGTLVTVSS light: EIVLTQSPGTLSLSPGERATLSCRASQRVSSSYLAWYQQKPGQAPRLLIYDASSRATGIPDRFSGSGSGTDFTLTISRLEPEDFAVYYCQQYGSLPWTFGQGTKVEIKRTVAAPSVFIFPPSDEQLKSGTASVVCLLNNFYPREAKVQWKVDNALQSGNSQESVTEQDSKDSTYSLSSTLTLSKADYEKHKVYACEVTHQGLSSPVTKSFNRGEC"
0.074 nM,0.079 nM,1.05e+06 MFI,1.2e+06 MFI,790000 MFI,1e+06 MFI,,,"bsAb070 (bispecific antibody, not shown: IgG1 CH1-hinge-CH2-CH3; CH2-CH3 (Fc)) heavy 1: EVQLVESGGGLVQPGGSLRLSCAASGFTFSRYWMSWVRQAPGKGLEWVANIKQDGSEKYYVDSVKGRFTISRDNAKNSLYLQMNSLRAEDTAVYYCAREGGWFGELAFDYWGQGTLVTVSS heavy 2: QVQLVQSGAEVKKPGASVKLSCKASGYIFTRYYMYWVKQRPGQGLEWIGEINPNNGGTKFNEKFKNRATLTVDKSISTAYMELSRLRSDDTAVYYCSREDDYDGTPFAMDYWGQGTLVTVSSGGGGSGGGGSGGGGSGGGGSDIQMTQSPSSLSASVGDRVTITCHASQNINVWLSWYQQKPGKAPKLLIYKASNLHTGVPSRFTGSGSGTDFTFTISSLQPEDIATYYCQQGQTYPYTFGQGTKLEIKGGGGSGGGGSGGGGSGGGGS light: EIVLTQSPGTLSLSPGERATLSCRASQRVSSSYLAWYQQKPGQAPRLLIYDASSRATGIPDRFSGSGSGTDFTLTISRLEPEDFAVYYCQQYGSLPWTFGQGTKVEIKRTVAAPSVFIFPPSDEQLKSGTASVVCLLNNFYPREAKVQWKVDNALQSGNSQESVTEQDSKDSTYSLSSTLTLSKADYEKHKVYACEVTHQGLSSPVTKSFNRGECGGGGSGGGGSGGGGSGGGGSDIQMTQSPSSLSASVGDRVTITCHASQNINVWLSWYQQKPGKAPKLLIYKASNLHTGVPSRFTGSGSGTDFTFTISSLQPEDIATYYCQQGQTYPYTFGQGTKLEIKGGGGSGGGGSGGGGSGGGGSQVQLVQSGAEVKKPGASVKLSCKASGYIFTRYYMYWVKQRPGQGLEWIGEINPNNGGTKFNEKFKNRATLTVDKSISTAYMELSRLRSDDTAVYYCSREDDYDGTPFAMDYWGQGTLVTVSS"

# — US20260265379A1 (IMCHECK THERAPEUTICS, published 2026)
